Columns and labels:
crystal structure = target: the molecule itself; assay: crystal structure
SEC = target: the molecule itself; assay: SEC
RsaL (crystal) = target: T1, RsaL (crystal) (UniProt Q9X7H4 1-80); assay: X-ray crystallography
T1 sequence: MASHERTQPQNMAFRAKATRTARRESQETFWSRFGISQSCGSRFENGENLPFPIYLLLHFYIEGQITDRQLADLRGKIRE

Binder	stoichiometry N (SEC)	also measured
RsaL (natural protein, Pseudomonas aeruginosa, UniProt Q9X7H4 1-80, looked up) MASHERTQPQNMAFRAKATRTARRESQETFWSRFGISQSCGSRFENGENLPFPIYLLLHFYIEGQITDRQLADLRGKIRE	–	binding result (crystal structure): binds
RsaL R20A (natural protein, Pseudomonas aeruginosa, UniProt Q9X7H4 1-80, looked up) MASHERTQPQNMAFRAKATATARRESQETFWSRFGISQSCGSRFENGENLPFPIYLLLHFYIEGQITDRQLADLRGKIRE	2	–
RsaL^R43A (natural protein, Pseudomonas aeruginosa, UniProt Q9X7H4 1-80, looked up) MASHERTQPQNMAFRAKATRTARRESQETFWSRFGISQSCGSAFENGENLPFPIYLLLHFYIEGQITDRQLADLRGKIRE	2	–
RsaL^Q27A (natural protein, Pseudomonas aeruginosa, UniProt Q9X7H4 1-80, looked up) MASHERTQPQNMAFRAKATRTARRESAETFWSRFGISQSCGSRFENGENLPFPIYLLLHFYIEGQITDRQLADLRGKIRE	2	–
RsaL with Glu45 mutated to Ala (natural protein, Pseudomonas aeruginosa, UniProt Q9X7H4 1-80, looked up) MASHERTQPQNMAFRAKATRTARRESQETFWSRFGISQSCGSRFANGENLPFPIYLLLHFYIEGQITDRQLADLRGKIRE	2	–
RsaL^Q38A (natural protein, Pseudomonas aeruginosa, UniProt Q9X7H4 1-80, looked up) MASHERTQPQNMAFRAKATRTARRESQETFWSRFGISASCGSRFENGENLPFPIYLLLHFYIEGQITDRQLADLRGKIRE	2	–
lasI promoter crystal duplex DNA_F/DNA_R (dsDNA) DNA 1: AAAAATTATGAAATTTGCATAAATTC DNA 2: TGAATTTATGCAAATTTCATAATTTT	–	binding result (RsaL (crystal)): binds

Reference: paper PMC5314801 (Nucleic Acids Research, 2016)
